# T1: full-length human LAG-3 on stably transfected CHO-S cells (human, UniProt P18627 23-525)
# T1 construct: also called hLAG3
# T1 sequence: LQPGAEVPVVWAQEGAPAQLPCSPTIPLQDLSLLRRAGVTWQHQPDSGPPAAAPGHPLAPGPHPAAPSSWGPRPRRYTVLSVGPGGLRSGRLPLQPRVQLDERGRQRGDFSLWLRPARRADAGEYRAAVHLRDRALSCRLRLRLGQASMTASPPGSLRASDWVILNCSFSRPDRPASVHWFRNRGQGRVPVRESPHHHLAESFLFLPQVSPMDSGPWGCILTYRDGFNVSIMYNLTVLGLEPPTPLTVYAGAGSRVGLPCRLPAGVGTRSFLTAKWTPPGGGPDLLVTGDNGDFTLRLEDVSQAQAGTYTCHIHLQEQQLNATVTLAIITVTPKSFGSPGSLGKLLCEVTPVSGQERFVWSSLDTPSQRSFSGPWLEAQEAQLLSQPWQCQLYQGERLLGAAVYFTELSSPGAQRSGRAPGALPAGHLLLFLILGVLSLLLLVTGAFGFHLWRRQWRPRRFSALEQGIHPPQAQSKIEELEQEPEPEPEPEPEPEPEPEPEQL
# T2: human LAG-3(ECD)-mFc (human, UniProt P18627 23-450)
# T2 construct: also called hLAG3-mFc; human LAG-3 extracellular domain (ECD) fused to mouse Fc; not shown: mouse Fc
# T2 sequence: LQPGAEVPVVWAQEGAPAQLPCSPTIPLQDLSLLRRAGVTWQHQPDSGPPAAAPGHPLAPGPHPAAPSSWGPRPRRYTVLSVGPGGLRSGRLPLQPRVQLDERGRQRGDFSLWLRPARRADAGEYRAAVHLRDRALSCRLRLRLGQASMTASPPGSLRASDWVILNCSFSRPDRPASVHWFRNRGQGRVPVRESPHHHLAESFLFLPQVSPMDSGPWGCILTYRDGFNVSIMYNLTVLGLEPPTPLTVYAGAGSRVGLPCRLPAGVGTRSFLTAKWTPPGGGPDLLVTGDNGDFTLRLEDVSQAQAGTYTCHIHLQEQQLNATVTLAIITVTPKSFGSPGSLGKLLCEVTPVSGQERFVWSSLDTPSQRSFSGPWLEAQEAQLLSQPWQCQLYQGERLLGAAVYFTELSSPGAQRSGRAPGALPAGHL
# B1: BG27 (antibody, V domains shown)
# VH: QAYLQQSGADLVRPGASVKMSCKASGYTFTSYDMHWVKQTPRQGLEWIGAIYPGNGDASYNQKFKGKATLTVDKASSTAFMQLSSLTSEDSAVYFCARGDYGNYVWFAYWGQGTLVTVSA
# VL: DVVMTQTPLSLPVSLGDQASISCRSSQTIVHSNRYTYLEWYLQKPGQSLKLLIYGVSNRFSGVPDRFSGSGSGTDFTLKISRVEAEDMGVYYCFQGTHVPPTFGAGTKLELK
# notes: Mouse mAb from hybridoma; also called mouse anti-LAG-3 mAb BG27
# B2: B12 (antibody, V domains shown)
# VH: EVKLLESGGSLVQPGGSLKLSCAASGFDFSRYWMSWVRQAPGKGLEWIGEINPDSSTINYTPSLRDEFIISRDNAKNTLFLQMSKVISEDTALYYCARITSGYYFDYWGQGTTLTVSS
# VL: DVVMTQTPLSLPVSLGDQASISCRSSQTIVYSNGNTYLYWYLQKPGQSPKLLIYRVSNRFPGVPDRFSGSGSGTDFTLKISGVEAEDMGVYYCFQGTHVPFTFGSGTKLEMK
# notes: Mouse mAb from hybridoma; also called mouse anti-LAG-3 mAb B12
# B3: BG29 (antibody, V domains shown)
# VH: QIQLQQSGPEVVKPGASVRISCKASGYTFSDYHINWVKQKPGQGLEWIGWIYPGRGDPEYNEKFKGKATLTVDRSASTAYMQLSSLTSEDTSVYFCEIYYGNYIDYWGQGTTLTVSS
# VL: DIVMTQAAPSVPVTPGESVSISCRSSKSLLHSDGKTYLYWFLQRPGQSPQRLIYYMSNLASGVPDRFSGRGSGTDFTLRISRVEAEDVGVYYCMQSLEYPWTFGGGTKLEIK
# notes: Mouse mAb from hybridoma; also called mouse anti-LAG-3 mAb BG29
# B4: BG33 (antibody, V domains shown)
# VH: QIQLQQSGPEVVKPGASVKISCKASGYTFSDYHINWVKQKPGQGLEWIGWIYPGRGNPEYNEKFKGKATLTVDRSANTAYMQLSSLTSEDSSVYFCEIYYGNYLDYWGQGTTLTVSS
# VL: DIVMTQAAPSVPVTPGESVSISCRSSKSLLHSDGKTYLYWFLQRPGQSPQRLIYYMSNLASGVPDRFSGRGSGTDFTLRISRVEAEDVGVYYCMQSLEYPWTFGGGTKLEIK
# notes: Mouse mAb from hybridoma; also called mouse anti-LAG-3 mAb BG33
# Tests used:
# [1] = molecular target: T1, full-length human LAG-3 on stably …; assay: FACS, CHO-S cells stably transfected with full-length human LAG-3, PE anti-mouse IgG
# Procedure: CHO-S cells stably transfected with full-length human LAG-3 were transferred to a 96-well plate. Around 200,000 cells were incubated with either purified chimeric anti-LAG-3 mAbs (variable regions of mouse mAbs fused to the constant regions of human IgG1 heavy chain and kappa light chain, respectively) or purified mouse anti-LAG-3 mAbs from hybridoma supernatants at various concentrations for 15 minutes at 4° C. Cells were then centrifuged at 1,000 rpm for 5 minutes and washed with FACS buffer (PBS supplemented with 5% BSA) three times. For the cells treated with the chimeric antibodies, the cells were then incubated with PE-conjugated goat anti-human IgG polyclonal antibodies and incubated on ice for another 15 minutes; for the cells treated with mouse mAbs, the cells were incubated with PE-conjugated goat anti-mouse IgG polyclonal antibodies and incubated on ice for another 15 minutes. Cells were then washed with FACS buffer three times and then resuspended in FACS buffer containing 0.1 μg/ml PI (propidium iodide) for live/dead cell gating. Cells were then run through the FACS Caliber instrument and the data were analyzed by the Flowjo software. Results of the FACS binding analysis of the mouse anti-LAG-3 mAbs (B1, B2, B3, B4, B5, B6, B7, B8, B9, B10, B11, B12, and B13) are provided in FIGS. 1A-1B.
# [2] = molecular target: T3, BG29 (human IgG4 heavy chain and kappa light chain chimeric); assay: ELISA peptide competition: peptide preincubated with chimeric IgG4 BG29, competitor hLAG3-mFc; peptide at 200-fold hLAG3-mFc; capture on anti-human IgG, anti-mouse IgG-HRP
# T3 construct: Chimeric: mouse VH and VL with human IgG4 heavy chain and kappa light chain constant regions; also called chimeric BG29
# Procedure: (§1) FIGS. 5A-5D show the effect of competition peptides on LAG-3 binding to anti-LAG-3 mAbs. […] B5/IgG4 was preincubated with a competition peptide for 30 minutes. Then human LAG-3 extracellular domain (ECD) fused to mouse Fc (hLAG3-mFc) was added (the final peptide concentration was 600-fold that of hLAG3-mFc) and the mixture was incubated for 60 minutes before being added to an ELISA plate coated with anti-human IgG. The incubation was carried out at 4° C. overnight. After washing, the hLAG3-mFc bound to the immobilized B5/IgG4 on the ELISA plate was detected by adding anti-mouse IgG conjugated to horseradish peroxidase (HRP) and incubating for 60 minutes. Then, after washing, the ELISA was developed using One-step Detection Solution and measured as the absorbance at 450 nm.
# (§2) Anti-human IgG in carbonate coating buffer was coated on an ELISA plate at 4° C. (50 μL/well at 1 μg/mL) overnight. In each well of a separate plate, a chimeric version of a given anti-LAG-3 mAb (50 μL/well at 1.4 nM) and a competition peptide (50 μL/well at various concentrations as indicated in the figures) were mixed and incubated for 30 minutes at room temperature. Then human LAG-3 extracellular domain (ECD) fused to mouse Fc (hLAG3-mFc) was added to each well (50 μL/well at 2 nM) and the final mixture was incubated at room temperature for 60 minutes before added to the ELISA plate (50 μL/well) for another 60-minute incubation. The final incubation after adding the mixture to the ELISA plate was also performed at 4° C. overnight in some assays. The plate was washed and the binding of hLAG3-mFc to the immobilized anti-LAG-3 mAb was detected by adding anti-mouse IgG conjugated to horseradish peroxidase ([…]) (ThermoFisher Scientific, Cat#: A16084; Waltham, Mass.) and incubating for 60 minutes.
# B7/IgG4 = molecular target: T4, B7/IgG4; assay: ELISA peptide competition: peptide preincubated with B7/IgG4, competitor hLAG3-mFc; peptide at 600-fold hLAG3-mFc; final incubation 60 min at room temperature; anti-mouse IgG-HRP
# T4 construct: Chimeric: mouse VH and VL with human IgG4 heavy chain and kappa light chain constant regions; also called B7 (human IgG4 heavy chain and kappa light chain chimeric)
# Procedure: B5/IgG4 was preincubated with a competition peptide for 30 minutes. Then human LAG-3 extracellular domain (ECD) fused to mouse Fc (hLAG3-mFc) was added (the final peptide concentration was 600-fold that of hLAG3-mFc) and the mixture was incubated for 60 minutes before being added to an ELISA plate coated with anti-human IgG. The incubation was carried out at 4° C. overnight. After washing, the hLAG3-mFc bound to the immobilized B5/IgG4 on the ELISA plate was detected by adding anti-mouse IgG conjugated to horseradish peroxidase (HRP) and incubating for 60 minutes. Then, after washing, the ELISA was developed using One-step Detection Solution and measured as the absorbance at 450 nm.
# The assay condition is the same as in FIG. 5A except that the final incubation of the mAb, the competition peptide, and hLAG3-mFc on the ELISA plate was performed at room temperature for 60 minutes instead of incubation at 4° C. overnight.
# Anti-human IgG in carbonate coating buffer was coated on an ELISA plate at 4° C. (50 μL/well at 1 μg/mL) overnight. In each well of a separate plate, a chimeric version of a given anti-LAG-3 mAb (50 μL/well at 1.4 nM) and a competition peptide (50 μL/well at various concentrations as indicated in the figures) were mixed and incubated for 30 minutes at room temperature. Then human LAG-3 extracellular domain (ECD) fused to mouse Fc (hLAG3-mFc) was added to each well (50 μL/well at 2 nM) and the final mixture was incubated at room temperature for 60 minutes before added to the ELISA plate (50 μL/well) for another 60-minute incubation.
# B5/IgG4 = molecular target: T5, B5/IgG4; assay: ELISA peptide competition: peptide preincubated with B5/IgG4, competitor hLAG3-mFc; peptide at 600-fold hLAG3-mFc; capture on anti-human IgG, anti-mouse IgG-HRP
# T5 construct: Chimeric: mouse VH and VL with human IgG4 heavy chain and kappa light chain constant regions; also called B5 (human IgG4 heavy chain and kappa light chain chimeric)
# Procedure: as §1, §2
# [3] = molecular target: T6, B12 (human IgG1 heavy chain and kappa light chain chimeric); assay: ELISA peptide competition: peptide preincubated with chimeric IgG1 B12, competitor hLAG3-mFc; peptide at 600-fold hLAG3-mFc; capture on anti-human IgG, anti-mouse IgG-HRP
# T6 construct: Chimeric: mouse VH and VL with human IgG1 heavy chain and kappa light chain constant regions
# Procedure: as §1, §2
# human LAG-3(ECD)-mFc = molecular target: T2, human LAG-3(ECD)-mFc; assay: FACS blocking assay: mAb preincubated with LAG-3(ECD)-mFc (1 µg/mL), blocked ligand MHC class II on Daudi cells, PE anti-mouse Fc
# Procedure: FIGS. 4A-4D show inhibition of human LAG-3 binding to MHC class II molecules by select anti-LAG-3 mAbs. An in vitro binding assay was performed using recombinant LAG-3(ECD)-mFc and Daudi cells which express human MHC class II molecules. […] The binding of LAG-3(ECD)-mFc to Daudi cells in the presence of anti-LAG-3 mAbs or a control mAb was analyzed by FACS.
# Human Daudi cells were cultured in RPMI+10% FBS. Human LAG-3(ECD)-mFc protein (human LAG-3 ECD fused to mouse Fc) at 1 μg/ml final concentration was incubated with purified mouse, humanized, or chimeric anti-LAG-3 mAbs at various concentrations for 15 minutes at 4° C. The mixture was then added to 100,000 human Daudi cells in a 96-well round bottom plate, mixed and incubated for 15 minutes on ice. Cells were then centrifuged at 1,000 rpm for 5 minutes and washed with FACS buffer (PBS supplemented with 5% BSA) three times. The cells were then incubated with PE-conjugated goat anti-mouse Fc polyclonal antibodies on ice for 15 minutes, washed with FACS buffer three times and then resuspended in FACS buffer containing 0.1 μg/ml PI (propidine iodine) for live/dead cell gating. Cells were then run through the FACS Caliber instrument and the data were analyzed by the Flowjo software. Results of the inhibition of LAG-3 binding to Daudi cells by chimeric mAbs B1C, B3C, B4C, BSC, B9C, and B11C are shown in FIG. 4B.
# T5 sequence (VH, as listed by the source, chain 1 of 2): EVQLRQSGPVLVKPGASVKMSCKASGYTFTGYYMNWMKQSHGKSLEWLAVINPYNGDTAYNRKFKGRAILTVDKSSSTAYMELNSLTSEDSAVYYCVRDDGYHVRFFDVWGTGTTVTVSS
# T5 sequence (VL, as listed by the source, chain 2 of 2): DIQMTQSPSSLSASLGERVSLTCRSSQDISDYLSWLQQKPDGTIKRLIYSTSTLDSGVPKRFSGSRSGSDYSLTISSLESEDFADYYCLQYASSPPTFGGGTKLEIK
# T4 sequence (VH, as listed by the source, chain 1 of 2): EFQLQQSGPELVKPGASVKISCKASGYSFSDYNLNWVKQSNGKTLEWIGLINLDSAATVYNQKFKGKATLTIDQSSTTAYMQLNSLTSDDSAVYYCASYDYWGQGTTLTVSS
# T4 sequence (VL, as listed by the source, chain 2 of 2): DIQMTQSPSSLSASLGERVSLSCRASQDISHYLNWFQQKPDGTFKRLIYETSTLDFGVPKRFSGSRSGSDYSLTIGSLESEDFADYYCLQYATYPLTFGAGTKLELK
Binder,EC50 (read off the curve) [1] [mg/L],binding result [2],binding result (B5/IgG4),also measured
B1,~0.3,–,–,–
GPPAAAPGHPLAPGPHPAAPSSWGPRPRRY (also called peptide 1-30) [1-30],–,binds,–,binding result (B7/IgG4): binds
PPAAAPGHPLAPG (also called peptide 2-14) [2-14],–,binds,binds,binding result [3]: binds
B2,–,–,–,binding result [1]: binds; binding result (human LAG-3(ECD)-mFc): binds
GPPAAAPGHPLAPG (also called peptide 1-14) [1-14],–,binds,binds,binding result [3]: binds
GPPAAAPGHPLAP (also called peptide 1-13) [1-13],–,binds,binds,–
B3,~0.2,–,–,–
B4,~0.4,–,–,–

# Reference: US20210032331A1 (PHANES THERAPEUTICS, published 2021)
